This is an account of results in publication PMC8308607, “Antistaphylococcal Activity of the FtsZ Inhibitor C109” (Pathogens, 2021).

This series concerns the molecule itself. The series is described as follows: co-sedimentation; polymerization (sedimentation) assay: 12 μM SaFtsZ, 2 mM GTP, 50 mM MES pH 6.5, 5 mM Mg(CH3COO)2, 100 mM CH3CO2K, 10 min at 30 °C, ultracentrifuged at 350,000 x g for 10 min at 25 °C, pellet and supernatant on SDS-PAGE; with or without 50 μM C109.

B1: wild-type FtsZ of S. aureus (natural protein, Staphylococcus aureus ATCC 25923, UniProt P0A031 1-390, looked up)
chain: MLEFEQGFNHLATLKVIGVGGGGNNAVNRMIDHGMNNVEFIAINTDGQALNLSKAESKIQIGEKLTRGLGAGANPEIGKKAAEESREQIEDAIQGADMVFVTSGMGGGTGTGAAPVVAKIAKEMGALTVGVVTRPFSFEGRKRQTQAAAGVEAMKAAVDTLIVIPNDRLLDIVDKSTPMMEAFKEADNVLRQGVQGISDLIAVSGEVNLDFADVKTIMSNQGSALMGIGVSSGENRAVEAAKKAISSPLLETSIVGAQGVLMNITGGESLSLFEAQEAADIVQDAADEDVNMIFGTVINPELQDEIVVTVIATGFDDKPTSHGRKSGSTGFGTSVNTSSNATSKDESFTSNSSNAQATDSVSERTHTTKEDDIPSFIRNREERRSRRTRR
notes: FtsZ, cell division protein, Staphylococcus aureus ATCC 25923; full-length ftsZ gene (1173 bp) amplified from genomic DNA; Cloned into pETSUMO by In-Fusion; also called SaFtsZ; full-length S. aureus FtsZ; source: E. coli BL21(DE3), purified (HisTrap HP nickel column, SUMO protease, Superdex-75 SEC)
For the protein B1, the binding result is reported as “binds”.
